In patent US9512172B2, “Ethanol dependence of alpha1 antitrypsin C-terminal Lys truncation by basic carboxypeptidases” (Baxalta Incorporated, priority 2006, dated 2016):
One block for each molecule: values may come before it.

Columns and labels:
CPN present in the paste = target: T1, CPN present in the paste (Homo sapiens, UniProt P15169); assay: Effect of CP inhibitors on C-terminal lysine truncation in dissolved, ethanol-treated IV-1 paste (IEF); type: biochemical
T1 construct: Cohn IV-1 precipitate is usually derived after ethanol fractionation of plasma; from tissue; host or cells: Cohn IV-1 paste (ethanol precipitate of plasma)
T1 sequence (P15169 21-458): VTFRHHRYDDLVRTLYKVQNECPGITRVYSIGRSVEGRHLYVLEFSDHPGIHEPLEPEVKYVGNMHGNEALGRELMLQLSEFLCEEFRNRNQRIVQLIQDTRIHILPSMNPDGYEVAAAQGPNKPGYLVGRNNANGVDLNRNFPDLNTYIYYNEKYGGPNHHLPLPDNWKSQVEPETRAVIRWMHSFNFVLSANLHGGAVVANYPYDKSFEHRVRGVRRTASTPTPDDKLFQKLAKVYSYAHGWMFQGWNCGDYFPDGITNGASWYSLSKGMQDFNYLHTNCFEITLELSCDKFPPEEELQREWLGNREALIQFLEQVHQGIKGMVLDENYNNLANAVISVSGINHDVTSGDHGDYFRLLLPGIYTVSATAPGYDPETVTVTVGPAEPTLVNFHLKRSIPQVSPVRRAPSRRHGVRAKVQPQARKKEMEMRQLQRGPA
T1 sequence (P22792 22-545 partner): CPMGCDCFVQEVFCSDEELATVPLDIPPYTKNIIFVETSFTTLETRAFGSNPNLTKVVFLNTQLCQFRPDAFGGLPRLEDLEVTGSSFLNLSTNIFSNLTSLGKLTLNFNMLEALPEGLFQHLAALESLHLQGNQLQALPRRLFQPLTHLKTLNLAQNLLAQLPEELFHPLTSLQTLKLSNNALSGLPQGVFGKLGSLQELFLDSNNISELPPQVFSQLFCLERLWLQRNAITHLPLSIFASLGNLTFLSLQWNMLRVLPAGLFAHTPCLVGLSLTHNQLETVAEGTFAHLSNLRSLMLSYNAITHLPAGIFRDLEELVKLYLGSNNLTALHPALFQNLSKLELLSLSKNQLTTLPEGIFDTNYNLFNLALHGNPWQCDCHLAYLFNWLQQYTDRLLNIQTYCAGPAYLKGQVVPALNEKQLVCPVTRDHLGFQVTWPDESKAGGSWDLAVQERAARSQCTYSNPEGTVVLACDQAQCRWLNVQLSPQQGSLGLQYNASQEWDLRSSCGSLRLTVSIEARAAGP
Description: (§1) Cohn IV-1 paste was dissolved in 2.6 volumes of 10 mM Tris-buffer at pH 8.8 and incubated for 30 min at 22° C. The suspension was made 40% in ethanol (by addition of 2.4 volumes of ethanol), stirred for a further 60 min, diluted with the same Tris-buffer to 10% ethanol and extracted for a further 6 h.
The following inhibitors were added in parallel during extraction and dilution with Tris-buffer: 100 mM 6-aminocaproic acid, 10 μM or 1 nM 2-mercaptomethyl-3-guanidinoethylthiopropanoic acid (a more specific inhibitor of CPN). The samples were characterized by high resolution isoelectric focusing.
(§2) For high resolution isoelectric focusing a new hybrid IEF method using IPG-Immobiline gels (GE Healthcare Bio-Sciences, pI 4.2-4.9, Uppsala, Sweden) was developed which is similar to that described by Weidinger^54. Samples were diluted with water to 0.5 mg A1PI/mL and 5 mM DTE was added. Samples (20 μl) were applied close to the cathode on the pre-focused gel and focused for 150 min (5000 Vh). For paste extracts focusing time was extended to 420 min. Gels were stained with Coomassie Brilliant Blue G-250 (BioRad, Hercules, USA) as described by Neuhoff^55. Blotting and immunostaining were done with a rabbit anti-A1PI antibody (Rabbit Anti-Human Alpha-1-Antitrypsin, #A0012, DakoCytomation, Glostrup, Denmark).

CPN = target: T2, CPN (Homo sapiens, UniProt P15169); assay: CPN-catalysed removal of C-terminal lysine from A1PI products, released Lys by HPLC; type: biochemical; set-up: purchased Elastin Company; settings: incubation with CPN, 10 min
T2 sequence (P15169 21-458): T1 sequence (P15169 21-458)
T2 sequence (P22792 22-545 partner): T1 sequence (P22792 22-545 partner)
Description: The cleaved C-terminal lysine of A1PI was determined using automated orthophtalicdialdehyd (OPA) pre-column derivatization and high-performance liquid chromatography. The derivatization reagent was prepared by dissolving 100 mg of OPA in 2.5 mL of methanol by short ultrasonication, adding 23 mL of deoxygenated sodium borate buffer (0.2 mol/L, pH 9.0), 100 μl of 2-mercaptoethanol and 100 μl of Brij 35 as described^53. The system used was an ASTED HPLC system (Gilson, Paris) with Shimadzu RF-A fluorescence detector and a C-18 Chromolith ODS 4.7*100 mm column. A mixture of 50 mM KH2PO4, acetonitrile and methanol (ratio 50:24:26) was used as mobile phase and ornithine was used as internal standard.
To 30 μl 0.5 mM A1PI (using ARALAST® (Alpha1-Proteinase Inhibitor (Human)) or PROLASTIN® (Alpha1-Proteinase Inhibitor (Human))) 10 μl water or ethanol (different concentrations) was added. Afterwards 10 μl CPN (500 U/L) was added and after a 10 minutes incubation interval the reaction was stopped by adding 50 μl internal standard in 0.25 M HCl. The cleaved lysine was quantified as described above.

A1PI [1] = assay: Incubation of purified non-truncated A1PI with carboxypeptidases, analysis by IEF; type: biochemical, human; settings: for Lys truncation of A1PI by carboxypeptidase: A1PI in temporary contact with 40% ethanol, then diluted to 10% ethanol; for C-terminal lys removal from A1PI by carboxypeptidase: in the presence of only 10% ethanol
Description: A1PI solutions were incubated with different CPs. Temporary exposure to 40% ethanol was achieved by diluting the A1PI preparation (38 μM) with 96% ethanol. The precipitate formed was kept 30 min at −20° C. and a further 30 min at +4° C., before it was diluted with TRIS-HCl buffer (pH 8.8) to a final concentration of 10% ethanol. Concomitantly, CPs were added with the TRIS buffer and the reaction mixture containing 10 μM A1PI was then incubated at 37° C. for 60 min. Before IEF analysis dithioerythritol (DTE) was added to a final concentration of 5 mM. In addition, the incubation with CPs was done without ethanol or at 10% ethanol. Furthermore, we ran two concentration rows with either CPN (270-1 mU/ml) or CPM (250-10 mU/ml) after temporary exposure of A1PI to 40% ethanol (CPN units were tested against Hip-Arg).
as §2

A1PI [2] = assay: C-terminal Lys truncation of A1PI in dissolved Cohn IV-1 paste (IEF); type: biochemical, human; settings: presence of only 10% ethanol; CPB added, CPN as present in the paste
Description: as §1
IV-1 paste was dissolved in 20.6 volumes of 10 mM Tris-buffer at pH 8.8 and incubated during 30 min at 22° C. The suspension was made 10% in ethanol (by addition of 2.4 volumes of ethanol) and stirred for a further 6 h at 22° C. and pH 8.8.
as §2

Inhibition of Lys truncation induced by the procedure 40=>10% EtOH (CPN present in the paste; dissolved IV-1 paste, pH 8.8, 6 h): could be inhibited
Inhibition of lysine removal from A1PI (CPN present in the paste; inhibitor at 100 mM): completely inhibited
Molecule: NCCCCCC(=O)O [6-amino caproic acid]

Ethanol concentration at which linear increase of Lys removal starts (CPN): 10 % ethanol
Molecule: ARALAST: Alpha1-Proteinase Inhibitor (Human), approved plasma-derived A1PI concentrate, made from Cohn IV-1+IV-4 paste

B1: CPN: carboxypeptidase N, EC 3.4.17.3, basic carboxypeptidase of plasma (protein, UniProt P15169 21-458; P22792 22-545, looked up)
Carboxypeptidase N catalytic …: T1 sequence (P15169 21-458)
Carboxypeptidase N subunit 2: T1 sequence (P22792 22-545 partner)
C-terminal lysines cleaved from purified uncleaved A1PI (A1PI [1]; 50 mU CPN/ml): 10-20%
Lys truncation of A1PI by carboxypeptidase (A1PI [1]): ~60%
C-terminal lys removal from A1PI by carboxypeptidase (A1PI [1]): slightly
Lys truncation of A1PI in dissolved IV-1 paste by carboxypeptidase (A1PI [2]): did not remove the C-terminal lysine

B2: CPB: carboxypeptidase B, EC 3.4.17.2, small 35 kDa carboxypeptidase from pancreas (protein, UniProt P15086 111-417, looked up)
Carboxypeptidase B: ATGHSYEKYNKWETIEAWTQQVATENPALISRSVIGTTFEGRAIYLLKVGKAGQNKPAIFMDCGFHAREWISPAFCQWFVREAVRTYGREIQVTELLDKLDFYVLPVLNIDGYIYTWTKSRFWRKTRSTHTGSSCIGTDPNRNFDAGWCEIGASRNPCDETYCGPAAESEKETKALADFIRNKLSSIKAYLTIHSYSQMMIYPYSYAYKLGENNAELNALAKATVKELASLHGTKYTYGPGATTIYPAAGGSDDWAYDQGIRYSFTFELRDTGRYGFLLPESQIRATCEETFLAIKYVASYVLEHLY
Lys truncation of A1PI by carboxypeptidase (A1PI [1]): almost complete
C-terminal lys removal from A1PI by carboxypeptidase (A1PI [1]): completely truncate
Lys truncation of A1PI in dissolved IV-1 paste by carboxypeptidase (A1PI [2]): almost complete

B3: CPM: carboxypeptidase M, EC 3.4.17.12, recombinant, expressed in P. pastoris (protein, UniProt P14384 18-423, looked up)
Carboxypeptidase M: LDFNYHRQEGMEAFLKTVAQNYSSVTHLHSIGKSVKGRNLWVLVVGRFPKEHRIGIPEFKYVANMHGDETVGRELLLHLIDYLVTSDGKDPEITNLINSTRIHIMPSMNPDGFEAVKKPDCYYSIGRENYNQYDLNRNFPDAFEYNNVSRQPETVAVMKWLKTETFVLSANLHGGALVASYPFDNGVQATGALYSRSLTPDDDVFQYLAHTYASRNPNMKKGDECKNKMNFPNGVTNGYSWYPLQGGMQDYNYIWAQCFEITLELSCCKYPREEKLPSFWNNNKASLIEYIKQVHLGVKGQVFDQNGNPLPNVIVEVQDRKHICPYRTNKYGEYYLLLLPGSYIINVTVPGHDPHITKVIIPEKSQNFSALKKDILLPFQGQLDSIPVSNPSCPMIPLYRNLPDHS
Carboxypeptidase concentration inducing 50% C-terminal A1PI truncation (A1PI [1]; 40% ethanol-pretreated purified A1PI): 50 mU/ml
Lys truncation of A1PI by carboxypeptidase (A1PI [1]): almost complete
